The target of series [1] is Klebsiella pneumonia DHOase (Klebsiella pneumonia). Description: cross-linking; glutaraldehyde 1%, individual DHOase 3 uM, 4 C, 20 min; Coomassie Blue-stained SDS-PAGE.
In series [2] the target is DHOase domain of human CAD (human). The description is as above.
Series [3] concerns the molecule itself. Description: cross-linking; glutaraldehyde 0.5%, DHOase 3 uM, 4 C, 20 min; Coomassie Blue-stained SDS-PAGE.
Series [4] concerns the molecule itself. Description: crystal structure; complex form I with malate, 16% PEG 4000, 100 mM imidazole-malate, pH 7.0, room temperature; PDB 6L0A, 1.79 A, space group P2(1), four molecules per asymmetric unit.
Series [5] deals with the molecule itself. Description: SEC; Superdex 200 prep grade, protein 10 mg/mL in 20 mM MES, 100 mM NaCl, pH 6.0, 0.5 mL/min; calibrated with proteins of known molecular weight. On the technique in general: SEC sorts molecules by how far they enter the pores of the column.
Series [6] deals with the molecule itself. Description: cross-linking; glutaraldehyde 1%, individual DHOase 3 uM, 4 C, 20 min; Coomassie Blue-stained SDS-PAGE.

This note sets out measurements from publication PMC8659124, “Structural Analysis of Saccharomyces cerevisiae Dihydroorotase Reveals Molecular Insights into the Tetramerization Mechanism” (Molecules, 2021).

For orientation: stoichiometry N means the number of molecules, sites or subunits per partner or assembly.

Where “and” joins values, the source holds several entries; their conditions need not be identical. Equal entries are not always repeated.

For Klebsiella pneumonia DHOase (enzyme), the stoichiometry N in series [1] amounted to 2. With “DHOase domain of human CAD (domain or fragment)”, the stoichiometry N in series [2] worked out at 2.

B1: Saccharomyces cerevisiae dihydroorotase (enzyme)
chain: MVQEIDLGLTCDMHVHVREGAMCELVTPKIRDGGVSIAYIMPNLQPPITTLDRVIEYKKTLQKLAPKTTFLMSFYLSKDLTPDLIHEAAQQHAIRGVKCYPAGVTTNSAAGVDPNDFSAFYPIFKAMQEENLVLNLHGEKPSVHDGDKEPIHVLNAEEAFLPALKKLHNDFPNLKIILEHCTSESAIKTIEDINKNVKKATDVKVAATLTAHHLFLTIDDWAGNPVNFCKPVAKLPNDKKALVKAAVSGKPYFFFGSDSAPHPVQNKANYEGVCAGVYSQSFAIPYIAQVFEEQNALENLKGFVSDFGISFYEVKDSEVASSDKAILFKKEQVIPQVISDGKDISIIPFKAGDKLSWSVRWEPR
modifications: carbamylated lysine (Kcx) at 98
notes: Dihydroorotase of Saccharomyces cerevisiae, the monofunctional DHOase encoded by an independent gene; monomer about 40 kDa; Two Zn ions and malate in the active site of each subunit in the crystals; also called ScDHOase; DHOase
In the case of B1, the “stoichiometry N” value was 2 in series [3]; 4 in series [4]; ~2 and ~4.1 in series [5].

B2: Salmonella enterica serovar Typhimurium LT2 DHOase (enzyme, UniProt P06204 1-348, looked up)
chain: MTAPSQVLKIRRPDDWHVHLRDGDMLKTVVPYTSEIYGRAIVMPNLASPITTVDAAIAYRQRILDAVPAGHDFTPLMTCYLTDSLDADELERGFHEGVFTAAKLYPANATTNSSHGVTSVDAIMPVLERMEKLGIPLLVHGEVTHADVDIFDREARFIDTVMEPLRQRLTALKVVFEHITTKDAAQYVRDGNDYLAATITPQHLMFNRNDMLVGGIRPHLYCLPILKRNIHQQALRELVASGFTRAFLGTDSAPHSRHRKETSCGCAGCFNAPSALGSYAAVFEEMNALAHFEAFCSLNGPQFYGLPMNTGWVELVRDEQQIPGNIALADDSLVPFLAGETVRWSVKK
notes: Dihydroorotase of Salmonella enterica serovar Typhimurium LT2; also called StDHOase
B2: the “stoichiometry N” value in series [6] worked out at 2.
